Columns and labels:
[1] = target: T1, N-terminal tagged His10-PirA^vp (Vibrio parahaemolyticus); experiment: ITC; iTC200; 1100 uM PirB^vp in the syringe injected into 110 uM PirA^vp in the cell, 19 injections of 2 uL, 25 °C; 30 mM Tris pH 8.0, 100 mM NaCl, 5% glycerol, 1 mM DTT; triplicate; settings: both partners purified
T1 chain: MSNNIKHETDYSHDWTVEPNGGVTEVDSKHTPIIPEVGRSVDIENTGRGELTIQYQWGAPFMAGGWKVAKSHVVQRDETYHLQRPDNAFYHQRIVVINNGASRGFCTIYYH

[2] = target: T1, N-terminal tagged His10-PirA^vp; experiment: SDS-PAGE densitometry of the complex collected from gel filtration; complex fractions eluted at 12.5 to 13 mL, serially diluted, SDS-PAGE; bands quantified with Image J against standard curves of PirA^vp and PirB^vp; settings: both partners purified

B1: C-terminal tagged His6-PirB^vp (natural protein)
chain: MTNEYVVTMSSLTEFNPNNARKSYLFDNYEVDPNYAFKAMVSFGLSNIPYAGGFLSTLWNIFWPNTPNEPDIENIWEQLRDRIQDLVDESIIDAINGILDSKIKETRDKIQDINETIENFGYAAAKDDYIGLVTHYLIGLEENFKRELDGDEWLGYAILPLLATTVSLQITYMACGLDYKDEFGFTDSDVHKLTRNIDKLYDDVSSYITELAAWADNDSYNNANQDNVYDEVMGARSWCTVHGFEHMLIWQKIKELKKVDVFVHSNLISYSPAVGFPSGNFNYIATGTEDEIPQPLKPNMFGERRNRIVKIESWNSIEIHYYNRVGRLKLTYENGEVVELGKAHKYDEHYQSIELNGAYIKYVDVIANGPEAIDRIVFHFSDDRTFVVGENSGKPSVRLQLEGHFICGMLADQEGSDKVAAFSVAYELFHPDEFGTEK
Kd [1]: 7.33 ± 1.2 µM
dH [1]: -25.7 ± 1.42 kcal/mol
stoichiometry N [1]: 0.74 ± 0.01
stoichiometry N [2]: 1.1 PirA^vp per PirB^vp

From PMC6520838, “Structural Insights to the Heterotetrameric Interaction between the Vibrio parahaemolyticus PirA^vp and PirB^vp Toxins and Activation of the Cry-Like Pore-Forming Domain” (Toxins, 2019)
